To fix the notation:
B1: Ras GTPase-activating-like protein IQG1 (Candida albicans (strain SC5314 / ATCC MYA-2876)), Q5AH02 (parent)
chain: MAIGNIAARYLSSLEETDTTATTTTTTTSNVLQPSNRLNSPTKFNRKSLDNNSQDLDALARALNITPSKPETPTSISKGSATSLLRTKFESPSATVSSFKSTSSSNGVSPTKKNHFVEITSDETPSWANKNYKDILNKSPTKFNTQSNVHTPLKQLNQPIGTPSSSSLSPAKNASKSSPGYEYLCRIEAIKQWLESVLQEQITQSASQLISYIRNGIHLAKLANVVLPTSKPVFLNDSKLQFKHTENINRFFQLLDFFNMPDLFRFELTDLYDAKNVPKVWFCLHALSYILHKQDPSYPAMNNLVGKVDFSADDIRTANRALVNSPLPNFSSADTGEGKSDTSNNNSSTTSATAAFMDKVTSPVKKTPSPLKRPQQLQKKQLELVEDNKPELTQDSSGLSKISRDDPFTDRVDLAPPSTSNAKLELHTPPSKSLEFKIKSPIIDLSHRDSDYYTPELESHLPNIIKFQSLARGAVFRYLMFVDRILLKSYQDEFTNLFAIIRGNKARRKTVHKHRDELRLYSFEIIELQSIIRKNFVINKKPNFTSITNDVETVELQSLIRGKLTRDWKKYVTNGLEKFTPQIIDFQSLVRMKSIYSKSNKVISYKDEILPSLIELQSIARSQLYHRFSRSNAIDETEIIKIQSIIRRNAVIEDLYTKLSKVRSNKRRLIELQSIARGGVARTKLCNSVLVTLIYEDGILNQLFAKIRGDNYRKKFNSQKSELLKYEKSSIIPVQTLFRGVLSRYTKEVTLSDIFDQIDSVITLQSVARGKLMRGSIYEFSDYYQKHIKQVVKAQAILQRVFAQNAYKQLITSKNPPLKVIRRFAPLLSNNDRDFQDEMTLSDLKDLIIEKCKANEEYENQIEQLDMKLGLLDKNKISIEEFLKPTKGKTFKPIVENVKNLERLNKSLKKKIELWQTLFYFIQTNPIYLTKLFNSIPYTKNQTKSGQDLFQSVIQLFPVRDSSITYHSREEYFLVKLMIQLMQNDTANSNNLGDITKLHLTNWIDFFTNFNNHTFQRQHLKALLGKFVIRIVDNEQVDFESDPIRIYNQIIDHEMKVYGRSEKSRDISPQAAIQLPEVSNKFVGNLMSLRETCSDLLSMLQKNASGNKALLQIPDHVKLICRQGYLCAQRKFPDKSDQQHLAVAGVIFVKHYLGSILQVPENYGILTGNNDTQKAKSKDNLRYLYRVMLQLFSMKPFNDNFLKPLNEYIMASTDTVKSIISQAIINVGEIETVYELHDYDDLVTHQRPKLTISVNSLIQLEKSILQNVDIITTGNDDQLYKTCVEVEKLLISPQDMLTLTDLSSVTLNLNPTTQEESIVDSKTKTLFTQAKRCLLYIIRVQEEDDSDDLLELLISGIKPSHEQRFKEIVQYEKAEQDISLNNSKSVTANTVNKKKSTRPYSGTSLGDLSNLTYHELKKMCLEIILKLESMGELTRKNSFQTLLNQIAMDIKTKDSQRQCRWQQLQVSQKTIKKLSEKENYLKTQLHNYKKHVESVLLELQSKSKSNDKNWKRRLFNIMVIPVFSKQYFYHRELRKHNRLPKFGSYKYSAKKLIDQKVLIDFSTANNVATASKLDFMFSCHQVGKFTIEVASGTVNIPGATNTITLDELLALQYENKTKFELFDGMATFDSNNFMGLIFRKFYDLKKE
B2: Ras GTPase-activating-like protein IQG1 (Candida albicans (strain SC5314 / ATCC MYA-2876)), Q5AH02 (parent)
chain: B1 chain
partner: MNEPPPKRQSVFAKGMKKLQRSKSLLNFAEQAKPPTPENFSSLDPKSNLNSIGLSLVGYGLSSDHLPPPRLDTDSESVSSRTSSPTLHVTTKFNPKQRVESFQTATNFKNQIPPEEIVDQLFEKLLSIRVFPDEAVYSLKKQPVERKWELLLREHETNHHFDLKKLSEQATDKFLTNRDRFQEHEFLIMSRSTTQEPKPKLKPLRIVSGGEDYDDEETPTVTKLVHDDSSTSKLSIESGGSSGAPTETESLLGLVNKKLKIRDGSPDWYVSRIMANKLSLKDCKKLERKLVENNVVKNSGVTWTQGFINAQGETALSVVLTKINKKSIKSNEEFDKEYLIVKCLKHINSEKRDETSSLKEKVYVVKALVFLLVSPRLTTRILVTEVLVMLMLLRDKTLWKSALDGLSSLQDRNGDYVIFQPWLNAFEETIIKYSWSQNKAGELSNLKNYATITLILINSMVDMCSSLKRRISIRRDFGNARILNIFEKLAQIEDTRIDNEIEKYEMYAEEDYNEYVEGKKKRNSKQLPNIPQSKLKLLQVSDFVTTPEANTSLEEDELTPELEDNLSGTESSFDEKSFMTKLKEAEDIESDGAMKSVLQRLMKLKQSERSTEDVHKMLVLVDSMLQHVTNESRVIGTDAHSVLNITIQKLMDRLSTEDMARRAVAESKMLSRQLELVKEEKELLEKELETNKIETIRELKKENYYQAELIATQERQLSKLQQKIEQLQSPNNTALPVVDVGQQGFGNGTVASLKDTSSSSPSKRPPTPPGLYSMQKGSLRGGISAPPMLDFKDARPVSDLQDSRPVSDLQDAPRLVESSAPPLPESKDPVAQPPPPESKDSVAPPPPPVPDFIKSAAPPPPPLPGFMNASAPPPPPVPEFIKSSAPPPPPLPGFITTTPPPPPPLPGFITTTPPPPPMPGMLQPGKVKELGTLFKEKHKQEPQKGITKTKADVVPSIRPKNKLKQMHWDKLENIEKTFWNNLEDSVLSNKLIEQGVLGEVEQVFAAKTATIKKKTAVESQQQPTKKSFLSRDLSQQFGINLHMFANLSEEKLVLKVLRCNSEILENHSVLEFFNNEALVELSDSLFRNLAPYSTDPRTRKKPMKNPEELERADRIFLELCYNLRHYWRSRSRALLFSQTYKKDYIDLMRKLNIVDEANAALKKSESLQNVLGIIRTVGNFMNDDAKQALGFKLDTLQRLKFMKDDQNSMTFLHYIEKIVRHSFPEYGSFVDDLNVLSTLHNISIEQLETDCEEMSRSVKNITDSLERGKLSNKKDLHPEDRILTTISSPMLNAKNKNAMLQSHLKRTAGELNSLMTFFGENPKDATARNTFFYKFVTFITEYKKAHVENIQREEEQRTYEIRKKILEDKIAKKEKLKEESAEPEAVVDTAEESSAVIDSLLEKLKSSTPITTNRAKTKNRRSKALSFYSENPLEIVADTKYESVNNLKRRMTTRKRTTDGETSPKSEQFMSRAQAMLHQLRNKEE

In the first assay the parent is B1. The conditions noted are these: with bni1_canal BNI1, Q5AL52.
Chain of bni1_canal BNI1, Q5AL52 (Q5AL52 whole entry): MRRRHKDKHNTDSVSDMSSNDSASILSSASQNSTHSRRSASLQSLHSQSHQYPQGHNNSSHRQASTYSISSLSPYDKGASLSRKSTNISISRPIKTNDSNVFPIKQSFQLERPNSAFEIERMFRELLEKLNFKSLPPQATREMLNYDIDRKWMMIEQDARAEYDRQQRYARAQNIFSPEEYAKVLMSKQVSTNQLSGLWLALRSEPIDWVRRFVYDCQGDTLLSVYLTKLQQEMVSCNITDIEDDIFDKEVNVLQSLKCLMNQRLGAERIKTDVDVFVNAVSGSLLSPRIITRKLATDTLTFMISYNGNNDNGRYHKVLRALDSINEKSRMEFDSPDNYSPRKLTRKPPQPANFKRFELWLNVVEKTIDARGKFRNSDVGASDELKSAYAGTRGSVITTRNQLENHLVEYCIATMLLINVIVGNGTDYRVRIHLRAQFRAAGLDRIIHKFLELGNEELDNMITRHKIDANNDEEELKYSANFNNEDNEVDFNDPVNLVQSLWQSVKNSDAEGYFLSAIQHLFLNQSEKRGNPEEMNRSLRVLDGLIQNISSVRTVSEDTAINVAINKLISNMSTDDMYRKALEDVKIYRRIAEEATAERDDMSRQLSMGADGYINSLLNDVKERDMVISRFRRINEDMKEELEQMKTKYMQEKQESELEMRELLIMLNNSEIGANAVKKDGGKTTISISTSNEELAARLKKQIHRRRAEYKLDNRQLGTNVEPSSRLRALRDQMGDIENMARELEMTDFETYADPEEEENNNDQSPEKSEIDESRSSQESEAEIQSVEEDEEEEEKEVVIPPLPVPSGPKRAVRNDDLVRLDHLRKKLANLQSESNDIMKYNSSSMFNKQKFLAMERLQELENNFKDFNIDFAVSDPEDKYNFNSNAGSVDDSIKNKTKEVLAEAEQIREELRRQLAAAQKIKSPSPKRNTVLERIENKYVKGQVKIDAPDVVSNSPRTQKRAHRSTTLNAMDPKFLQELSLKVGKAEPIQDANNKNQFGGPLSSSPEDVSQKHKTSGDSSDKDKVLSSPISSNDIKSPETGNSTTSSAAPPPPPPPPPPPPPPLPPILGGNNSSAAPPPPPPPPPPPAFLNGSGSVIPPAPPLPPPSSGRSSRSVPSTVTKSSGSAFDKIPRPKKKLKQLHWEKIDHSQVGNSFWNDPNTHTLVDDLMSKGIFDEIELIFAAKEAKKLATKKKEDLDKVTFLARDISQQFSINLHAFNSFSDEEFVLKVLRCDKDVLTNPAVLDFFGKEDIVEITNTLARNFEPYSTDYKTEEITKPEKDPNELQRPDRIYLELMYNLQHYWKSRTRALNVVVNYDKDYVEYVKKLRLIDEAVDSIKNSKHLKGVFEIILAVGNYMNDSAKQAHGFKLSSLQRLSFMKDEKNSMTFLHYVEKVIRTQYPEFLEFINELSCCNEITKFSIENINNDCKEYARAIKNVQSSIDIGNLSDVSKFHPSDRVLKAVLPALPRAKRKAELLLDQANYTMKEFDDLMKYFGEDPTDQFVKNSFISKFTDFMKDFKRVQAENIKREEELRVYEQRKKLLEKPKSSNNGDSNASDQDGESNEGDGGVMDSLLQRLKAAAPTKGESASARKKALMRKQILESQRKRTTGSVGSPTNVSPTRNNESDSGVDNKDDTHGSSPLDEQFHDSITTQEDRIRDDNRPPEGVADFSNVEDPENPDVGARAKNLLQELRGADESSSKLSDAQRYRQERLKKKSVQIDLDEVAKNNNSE
E15A: the “effect of a mutation on the interaction” value is “disrupting interaction”.

The variants in the next assay derive from B2. The conditions noted are these: with bnr1_canal BNR1, Q5AAF4.
For E15A, the “effect of a mutation on the interaction” value is “disrupting interaction”.

For the origin of these results see IntAct's records for PubMed 18923418.
